From patent publication US7829301B2, “Screening assays for binding antagonists of the AMD-associated variant of factor H (H384)” (The University of Manchester, priority 2006, dated 2010)

How the values were obtained:
[1] = Heparin affinity chromatography on HiTrap Heparin column; type: binding; conditions: pH 7.3; linear salt gradient 130 mM to 1 M NaCl
Protocol: The heparin-binding properties of H384 and Y384 variants of FHCCP6-8 were compared to full-length human factor H by affinity chromatography on a HiTrap Heparin column (Amersham Biosciences) or a ‘home-made’ column in which 20 mg 4IS was coupled to 1.5-ml CNBr-activated Sepharose (Sigma) in 0.1 M NaHCO3, 0.5 M NaCl, pH 8.3 using the manufacturer's protocol. The 1-ml HiTrap column and ˜1-ml 4IS-column were equilibrated in 20 mM HEPES, 130 mM NaCl, 1 mM EDTA, pH 7.3. Protein (200 μg recombinant proteins; 100 μg full-length factor H) was loaded onto the columns (in 1 ml equilibration buffer) and any unbound material was removed with 5 column volumes of the same buffer and collected in 1-ml fractions. Protein was eluted from the columns using a linear salt gradient of 130 mM to 1 M NaCl over 20 min by mixing 20 mM HEPES, 1 M NaCl, 1 mM EDTA, pH 7.3 with the equilibration buffer at a flow rate of 1 ml/min.
This approach was also used to determine the relative heparin-binding activities of K370A, R386A and K387A mutants, where 200 μg of protein was loaded individually onto the HiTrap column.

[2] = Biotinylated bovine HS plate assay; type: binding; conditions: proteins immobilised at 1 μg/well
Protocol: The HS binding properties of FHCCP6-8(H384), FHCCP6-8(Y384) and full length Factor H were further tested using biotinylated bovine kidney heparan sulphate (Sigma) where the proteins were coated onto the wells of a Maxisorp microtitre plate (NUNC) at 1 μg/well in PBS (Oxoid; 137 mM NaCl, 2.6 mM KCl, 8.2 mM Na2HPO4, 1.5 mM KH2PO4, pH 7.3) overnight at room temperature. Link_TSG6 (denoted as L-TSG-6 in FIG. 9), a known HS-binding domain (see Mahoney et al. (2005) J. Biol. Chem. 280, 27044-27055) was immobilised at 1 μg/well as a positive control. Plates were blocked the next morning with 1% (w/v) BSA (Sigma, Cat. No. A-4503) in standard assay buffer (20 mM HEPES, 130 mM NaCl, 0.05% (v/v) Tween-20, pH 7.3) for 90 minutes at 37° C. The standard assay buffer was used for all subsequent incubations, dilutions and washes at room temperature. The biotinylated HS was incubated at various concentrations with the immobilised proteins for 4 hours. Bound material was detected by adding 200 μl/well of a 1:10,000 dilution of ExtrAvidin alkaline phosphatase (Sigma, Cat. No. E-2636) for 30 minutes. Plates were then developed with 200 μl/well of 1 mg/ml disodium p-nitrophenylphosphate (pNPP; Sigma) in 0.05 M Tris-HCl, 0.1 M NaCl, pH9.3, and developed for 40 minutes; the absorbance at 405 nm was measured and the signal from blank wells subtracted.

[3] = Microtitre plate assay: biotinylated proteins binding to unfractionated heparin immobilized on EpranEx plates
Protocol: The heparin/HS/DS-binding activities of the FHCCP6-8(H384) and FHCCP6-8(Y384) variants (using biotinylated-FHCCP6-8 constructs), and in some cases full-length Factor H (detected with an antibody), were compared using an assay where the glycosaminoglycans (GAGs) were immobilized on allylamine-coated EpranEx plates (Mahoney et al (2004) Anal. Biochem. 330, 123-129), kindly supplied by Plasso Technology Ltd., Sheffield, UK. […]
(§1) The following GAG preparations were analyzed: unfractionated heparins corresponding to the 2nd, 4th and 5th International Standards (denoted here as 2IS, 4IS and 5IS, respectively (Mulloy et al. (2000) Thromb. Haemost. 52, 148-153)); enoxaparin, dalteparin and LMr heparin from Sigma (Cat. No. H3400); selectively desulfated heparins prepared from 2IS heparin as described in Mulloy et al. (1994) Carbohydr. […]
(§2) In the case of the biotinylated FHCCP6-8(H384) and FHCCP6-8(Y384) constructs, bound material was detected by adding 200 μl/well of a 1:10,000 dilution of ExtrAvidin alkaline phosphatase (Sigma, Cat. No. E-2636) for 30 minutes. […]
In these plate assays all data points were determined in quadruplicate from each of two independent experiments.

[4] = Microtitre plate assay: binding to HSI and HSII immobilized on EpranEx plate; set-up: species or system pig; conditions: HS immobilized on allylamine-coated EpranEx plate
Source text: (§3) The heparin/HS/DS-binding activities of the FHCCP6-8(H384) and FHCCP6-8(Y384) variants (using biotinylated-FHCCP6-8 constructs), and in some cases full-length Factor H (detected with an antibody), were compared using an assay where the glycosaminoglycans (GAGs) were immobilized on allylamine-coated EpranEx plates (Mahoney et al (2004) Anal. Biochem. 330, 123-129), kindly supplied by Plasso Technology Ltd., Sheffield, UK. Previously, we have shown that heparin/HS can bind non-covalently to surfaces plasma polymerized with allylamine in such a way that these GAGs can still associate with a wide-range of proteins (Mahoney et al. (2005) J. Biol. Chem. 280, 27044-27055; Mahoney et al. (2004) ibid).
as §1, §2

[5] = Microtitre plate assay: biotinylated proteins binding to immobilized dermatan sulphate; set-up: species or system porcine; conditions: biotinylated proteins 0-10 pmol/well
Source text: as §3, §1, §2

Molecule	NaCl concentration at elution from HiTrap heparin affinity column [1] [mM NaCl]	interaction with biotinylated bovine kidney HS [2]	binding to immobilized unfractionated heparins compared to FHCCP6-8(Y384) ([3]; 2IS, 4IS and 5IS)	binding to HS preparations HSI and HSII [4]	interaction with DS [5]	binding to 4IS heparin relative to FHCCP6-8(H384) ([3]; heparin bound to allylamine-coated surface, biotinylated proteins)
FHCCP6-8(H384): recombinant protein of Factor H CCPs 6-8, H384 allotype, with N-terminal non-authentic glycine (SEQ ID NO: 1) (protein, listed as Homo sapiens, VARIANT (1)...(188) Protein sequence of the FHCCP6-8 (H384) construct) MGTLKPCDYPDIKHGGLYHENMRRPYFPVAVGKYYSYYCDEHFETPSGSYWDHIHCTQDGWSPAVPCLRKCYFPYLENGYNQNHGRKFVQGKSIDVACHPGYALPKAQTTVTCMENGWSPTPRCIRVKTCSKSSIDIENGFISESQYTYALKEKAKYQCKLGYVTADGETSGSITCGKDGWSAQPTCI	340	interact	more of the FHCCP6-8(H384) protein bound	lack of activity	interact with DS, albeit to a lesser degree than heparin	–
FHCCP6-8(Y384): recombinant Factor H CCPs 6-8, Y384 variant obtained by site-directed mutagenesis (SEQ ID NO: 3) (protein, listed as Homo sapiens, VARIANT (1)...(188) FHCCP6-8 (Y384 allotype of mature Factor H)) MGTLKPCDYPDIKHGGLYHENMRRPYFPVAVGKYYSYYCDEHFETPSGSYWDHIHCTQDGWSPAVPCLRKCYFPYLENGYNQNYGRKFVQGKSIDVACHPGYALPKAQTTVTCMENGWSPTPRCIRVKTCSKSSIDIENGFISESQYTYALKEKAKYQCKLGYVTADGETSGSITCGKDGWSAQPTCI	390	interact	–	lack of activity	interact with DS, albeit to a lesser degree than heparin	bind less well
